T1: brevican (BCAN) (human, UniProt Q96GW7 23-911, limits assumed)
T1 construct: Control protein of the pull-down assay
T1 sequence (looked up): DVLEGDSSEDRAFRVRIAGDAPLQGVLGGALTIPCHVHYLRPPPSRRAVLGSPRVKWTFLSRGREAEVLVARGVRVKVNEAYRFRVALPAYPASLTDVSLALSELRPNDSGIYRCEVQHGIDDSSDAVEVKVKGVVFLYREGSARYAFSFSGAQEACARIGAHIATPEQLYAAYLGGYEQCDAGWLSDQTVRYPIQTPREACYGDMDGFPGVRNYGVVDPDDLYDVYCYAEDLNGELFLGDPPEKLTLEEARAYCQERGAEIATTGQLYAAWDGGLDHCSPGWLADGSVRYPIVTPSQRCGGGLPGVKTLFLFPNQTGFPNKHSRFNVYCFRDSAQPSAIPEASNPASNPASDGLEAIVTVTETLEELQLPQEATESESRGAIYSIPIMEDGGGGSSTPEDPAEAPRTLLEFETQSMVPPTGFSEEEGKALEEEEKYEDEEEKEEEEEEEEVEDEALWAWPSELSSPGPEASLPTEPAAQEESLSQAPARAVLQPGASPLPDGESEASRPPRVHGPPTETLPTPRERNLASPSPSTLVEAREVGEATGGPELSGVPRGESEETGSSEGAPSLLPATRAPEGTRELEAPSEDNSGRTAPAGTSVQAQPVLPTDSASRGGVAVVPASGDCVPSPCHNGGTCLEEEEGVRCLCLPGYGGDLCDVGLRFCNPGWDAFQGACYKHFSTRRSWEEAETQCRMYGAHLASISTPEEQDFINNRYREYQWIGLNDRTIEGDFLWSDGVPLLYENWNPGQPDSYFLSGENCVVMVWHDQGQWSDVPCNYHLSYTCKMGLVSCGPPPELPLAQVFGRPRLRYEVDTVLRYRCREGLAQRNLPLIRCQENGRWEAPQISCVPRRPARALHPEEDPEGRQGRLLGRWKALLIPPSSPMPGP

B1: pleiotrophin (PTN) (ligand, human, UniProt P21246 33-168, looked up)
chain: GKKEKPEKKVKKSDCGEWQWSVCVPTSGDCGLGTREGTRTGAECKQTMKTQRCKIPCNWKKQFGAECKYQFQAWGECDLNTALKTRTGSLKRALHNAECQKTVTISKPCGKLTKPKPQAESKKKKKEGKKQEKMLD
notes: In the SEC and co-IP experiments this is the endogenous protein in SVZ hNPC conditioned media
B2: SPARC-like protein 1 (SPARCL1) (other, human, UniProt Q14515 17-664, looked up)
chain: IPTNARLLSDHSKPTAETVAPDNTAIPSLRAEAEENEKETAVSTEDDSHHKAEKSSVLKSKEESHEQSAEQGKSSSQELGLKDQEDSDGHLSVNLEYAPTEGTLDIKEDMSEPQEKKLSENTDFLAPGVSSFTDSNQQESITKREENQEQPRNYSHHQLNRSSKHSQGLRDQGNQEQDPNISNGEEEEEKEPGEVGTHNDNQERKTELPREHANSKQEEDNTQSDDILEESDQPTQVSKMQEDEFDQGNQEQEDNSNAEMEEENASNVNKHIQETEWQSQEGKTGLEAISNHKETEEKTVSEALLMEPTDDGNTTPRNHGVDDDGDDDGDDGGTDGPRHSASDDYFIPSQAFLEAERAQSIAYHLKIEEQREKVHENENIGTTEPGEHQEAKKAENSSNEEETSSEGNMRVHAVDSCMSFQCKRGHICKADQQGKPHCVCQDPVTCPPTKPLDQVCGTDNQTYASSCHLFATKCRLEGTKKGHQLQLDYFGACKSIPTCTDFEVIQFPLRMRDWLKNILMQLYEANSEHAGYLNEKQRNKVKKIYLDEKRLLAGDHPIDLLLRDFKKNYHMYVYPVHWQFSELDQHPMDRVLTHSELAPLRASLVPMEHCITRFFEECDPNKDKHITLKEWGHCFGIKEEDIDENLLF
notes: Endogenous protein in SVZ hNPC conditioned media
B3: insulin-like growth factor binding protein 2 (IGFBP2) (other, human, UniProt P18065 36-325, looked up)
chain: AEVLFRCPPCTPERLAACGPPPVAPPAAVAAVAGGARMPCAELVREPGCGCCSVCARLEGEACGVYTPRCGQGLRCYPHPGSELPLQALVMGEGTCEKRRDAEYGASPEQVADNGDDHSEGGLVENHVDSTMNMLGGGGSAGRKPLKSGMKELAVFREKVTEQHRQMGKGGKHHLGLEEPKKLRPPPARTPCQQELDQVLERISTMRLPDERGPLEHLYSLHIPNCDKHGLYNLKQCKMSLNGQRGECWCVNPNTGKLIQGAPTIRGDPECHLFYNEQQEARGVHTQRMQ
notes: Control protein of the pull-down assay
B4: secreted protein acidic and rich in cysteine (SPARC) (other, human, UniProt P09486 18-303, looked up)
chain: APQQEALPDETEVVEETVAEVTEVSVGANPVQVEVGEFDDGAEETEEEVVAENPCQNHHCKHGKVCELDENNTPMCVCQDPTSCPAPIGEFEKVCSNDNKTFDSSCHFFATKCTLEGTKKGHKLHLDYIGPCKYIPPCLDSELTEFPLRMRDWLKNVLVTLYERDEDNNLLTEKQKLRVKKIHENEKRLEAGDHPVELLARDFEKNYNMYIFPVHWQFGQLDQHPIDGYLSHTELAPLRAPLIPMEHCTTRFFETCDLDNDKYIALDEWAGCFGIKQKDIDKDLVI
notes: as for B2

What was measured:
Test in all cases: co-immunoprecipitation from SVZ hNPC conditioned media, Western blot
[1] = biological target: B3
Method: (§1) To assess the specificity of the pull-down assay, three control proteins also present in SVZ hNPC CM: 78 kDa glucose-regulated protein (GRP78), insulin-like growth factor binding protein 2 (IGFBP2), and brevican (BCAN), were immunoprecipitated and were not found to copurify with any of the four proteins (FIG. 4D).
(§2) Immunoprecipitation reactions were conducted using the Pierce Crosslink Magnetic IP/Co-IP Kit (Thermo Scientific, Waltham, Mass.). 25 μL of Pierce Protein A/G Magnetic Beads per reaction were rinsed and incubated with 5 μg of antibody on a rotating platform for 15 minutes at room temperature. Antibodies used were: mouse anti-pleiotrophin (Santa Cruz Biotechnology, Santa Cruz, Calif.), rabbit anti-SPARC (Santa Cruz Biotechnology, Santa Cruz, Calif.), mouse anti-SPARCL1 (Santa Cruz Biotechnology, Santa Cruz, Calif.), rabbit anti-HSP90B (GeneTex, Irvine, Calif.), rabbit normal IgG (Santa Cruz Biotechnology, Santa Cruz, Calif.), and mouse normal IgG (Santa Cruz Biotechnology, Santa Cruz, Calif.). Beads were rinsed, and subsequently crosslinked to the antibodies using 0.02 mM DSS for 30 minutes at room temperature. Beads were washed and then incubated with a mixed combination of 250 μL neural precursor cell conditioned media and 250 μL IP lysis/wash buffer overnight at 4° C. The following morning, beads were washed, resuspended in Laemmli loading buffer, and boiled at 100° C. for 5 minutes to release the bound antigens from the beads. Samples were loaded immediately onto Western blots for analysis of the bound antigens, or stored at −20° C. for future analysis. For Western blot analysis, 2% of the input conditioned media was loaded, and 5% of the IP bound antigen samples were loaded.

[2] = biological target: T1, brevican (BCAN)
Method: as §1, §2

[3] = biological target: T2, 78 kDa glucose-regulated protein (GRP78) (human, UniProt P11021 19-654)
T2 construct: Control protein of the pull-down assay
Method: as §1, §2

[4] = biological target: B2
Method: as §1, §2

[5] = biological target: T3, heat shock protein 90B (HSP90B) (human, UniProt P14625 22-803, limits assumed)
T3 construct: Endogenous protein in SVZ hNPC conditioned media; 'HSP90B' alone is ambiguous
Method: as §1, §2

T2 sequence (P11021 19-654 limits assumed): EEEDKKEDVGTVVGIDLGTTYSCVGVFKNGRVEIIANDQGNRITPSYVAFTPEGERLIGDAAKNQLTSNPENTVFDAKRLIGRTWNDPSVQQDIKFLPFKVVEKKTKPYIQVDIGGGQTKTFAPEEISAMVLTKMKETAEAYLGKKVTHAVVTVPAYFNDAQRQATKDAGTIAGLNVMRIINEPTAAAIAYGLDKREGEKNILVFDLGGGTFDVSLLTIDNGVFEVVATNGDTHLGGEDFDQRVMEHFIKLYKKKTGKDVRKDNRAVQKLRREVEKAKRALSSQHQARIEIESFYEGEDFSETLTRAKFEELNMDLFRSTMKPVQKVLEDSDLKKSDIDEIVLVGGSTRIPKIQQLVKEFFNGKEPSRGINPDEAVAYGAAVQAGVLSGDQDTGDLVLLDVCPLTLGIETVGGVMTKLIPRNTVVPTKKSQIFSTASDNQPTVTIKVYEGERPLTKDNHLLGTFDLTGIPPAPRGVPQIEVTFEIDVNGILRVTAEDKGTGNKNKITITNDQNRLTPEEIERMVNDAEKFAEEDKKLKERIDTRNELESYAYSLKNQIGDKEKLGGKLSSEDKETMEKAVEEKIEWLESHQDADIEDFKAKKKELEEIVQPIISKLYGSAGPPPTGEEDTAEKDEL
T3 sequence (P14625 22-803 limits assumed): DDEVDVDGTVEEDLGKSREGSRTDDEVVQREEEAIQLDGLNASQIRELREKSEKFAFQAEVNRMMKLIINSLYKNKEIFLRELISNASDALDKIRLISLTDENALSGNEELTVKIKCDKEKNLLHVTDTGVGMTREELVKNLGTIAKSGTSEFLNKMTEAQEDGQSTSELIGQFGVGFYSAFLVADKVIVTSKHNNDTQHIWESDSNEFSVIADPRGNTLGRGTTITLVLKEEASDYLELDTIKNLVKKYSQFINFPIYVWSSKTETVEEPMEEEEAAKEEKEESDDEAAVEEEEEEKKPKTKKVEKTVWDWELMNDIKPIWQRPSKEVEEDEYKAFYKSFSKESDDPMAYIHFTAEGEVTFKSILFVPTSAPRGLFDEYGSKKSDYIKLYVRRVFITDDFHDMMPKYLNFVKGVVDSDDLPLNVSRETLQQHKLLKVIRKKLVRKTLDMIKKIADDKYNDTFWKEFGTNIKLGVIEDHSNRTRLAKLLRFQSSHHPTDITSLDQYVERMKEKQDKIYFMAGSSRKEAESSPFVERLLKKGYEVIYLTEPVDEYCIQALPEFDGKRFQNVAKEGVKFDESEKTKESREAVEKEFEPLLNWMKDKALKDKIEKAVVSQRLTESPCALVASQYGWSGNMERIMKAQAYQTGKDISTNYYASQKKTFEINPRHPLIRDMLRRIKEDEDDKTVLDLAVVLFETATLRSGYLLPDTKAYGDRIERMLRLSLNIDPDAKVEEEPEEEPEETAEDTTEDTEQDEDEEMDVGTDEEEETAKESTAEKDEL

Row | binding result [1] | binding result [2] | binding result [3] | binding result [4] | binding result [5] | Binder
1 | no binding | no binding | no binding |  |  | B1
2 |  | no binding |  |  |  | B2
3 |  |  |  | no binding | no binding | B3
4 | no binding | no binding |  |  |  | B4

— patent publication US20190055556A1 (Stanford University, published 2019)
